From paper PMC8137598

Target: full-length A82F variant of CYP102A1 with an N-terminal His6 tag (Bacillus megaterium) (UniProt P14779)
Test: SEC-MALS

stoichiometry N: 2
Substance: full-length A82F variant of CYP102A1 with an N-terminal His6 tag (from UniProt P14779 1-1049) (enzyme)
